The subject of data set [1] is Ink4a/Arf deficient embryonic fibroblasts. Briefly: Colony formation of Ink4a/Arf deficient embryonic fibroblasts. Type of data set: cell-based. The following applies: about 300 cells per 6 well plate; vector only about 13. As for the experimental part: In addition, Ink4a/Arf deficient embryonic fibroblasts were transfected with vector only or a vector encoding a Bcl2L12 polypeptide or Bcl2 polypeptide. Once the cells were transfected, the number of colonies formed in cultures (about 300 cells per 6 well plate) was determined. Expression of Bcl2L12 polypeptide promoted growth of Ink4a/Arf deficient embryonic fibroblasts. […] In a similar experiment, Ink4a/Arf deficient embryonic fibroblasts were co-transfected with a vector encoding H-RasV12 and either a vector only, vector encoding Bcl2L12 polypeptide, or a vector encoding Bcl2 polypeptide. Once the cells were transfected, the number of foci formed per transfection was determined. Expression of Bcl2L12 polypeptide or Bcl2 polypeptide in combination with H-RasV12 expression promoted growth of Ink4a/Arf deficient embryonic fibroblasts (about 1.5 to 2 fold more foci per transfection for cells expressing Bcl2L12 polypeptide or Bcl2 polypeptide compared to control pBabe cells).

Data set [2] concerns Ink4a/Arf deficient astrocytes. Briefly: DNA fragmentation (sub-G1, FACS) in Ink4a/Arf deficient astrocytes after apoptotic stimuli. The following applies: for DNA fragmentation: 500 nM STS, pBabe about 22 percent. The format is cell-based, mouse. As for the experimental part:
After STS treatment, the cells were analyzed for apoptosis by assessing annexin V binding and DNA fragmentation using a FACS based analysis.
In a separate experiment, Ink4a/Arf deficient astrocytes ectopically expressing Bcl2L12-V5 polypeptide or containing an empty vector as control were treated with 0, 50, 100, or 1000 nM of STS. After a 24 hour-incubation, DNA fragmentation was measured using FACS-based quantification of sub-G1 DNA content.
In another experiment, Ink4a/Arf deficient astrocytes ectopically expressing Bcl2L12-V5 polypeptide or containing an empty vector as control were treated with 0, 2, 4, 8, 16, or 32 μM camptothecin (CPT) for 20 hours. After the 20 hour incubation, DNA fragmentation was determined by FACS-based quantification of sub-G1 peaks. Expression of the Bcl2L12 polypeptide conferred resistance to CPT-stimulated apoptosis.
Ink4a/Arf deficient astrocytes ectopically expressing Bcl2L12-V5 polypeptide or containing an empty vector as control were treated with TNFα in the presence of 1 μg/mL cycloheximide for 24 hours. After the 24 hour incubation, DNA fragmentation was measured using FACS-based quantification of sub-G1 DNA content.
Ink4a/Arf deficient astrocytes ectopically expressing Bcl2L12-V5 polypeptide or containing an empty vector as control were treated with 0, 10, 50, and 100 Gray (Gy) of γ radiation. After 24 hours, DNA fragmentation was measured. Ectopic expression of a Bcl2L12 polypeptide protects INK4a/Arf deficient astrocytes from γ-irradiation-induced apoptosis (FIG. 5C).

Data set [3] concerns Ink4a/Arf deficient astrocytes. The data set can be described thus: Colony formation of Ink4a/Arf deficient astrocytes after gamma-irradiation. The format is cell-based, mouse. The following applies: γ-irradiated 5 Gy, ten days, 1000 cells/10 cm dish; vector only about 17. The method, then: The ability of Bcl2L12 polypeptide to promote colony formation was assessed. Briefly, 1000 cells were seeded in a 10 cm dish and γ-irradiated (5 Gy). After culturing the irradiated cells for ten days, the cells were stained with crystal violet, and the number of colonies was counted. Bcl2L12-V5 polypeptide expression promoted colony formation in Ink4a/Arf deficient astrocytes upon γ-irradiation (about 27 colonies for cells expressing Bcl2L12-V5 polypeptides compared to about 17 colonies for control vector only cells; 1000 cells/10 cm dish).

For another data set, the system named is cytochrome c release. The data set can be described thus: Cytochrome c release in STS-treated astrocytes. Type of data set: cell-based. As for the experimental part: To determine whether Bcl2L12 polypeptides inhibit the apoptogenic activity of mitochondria, cytochrome c release in STS-treated astrocytes over-expressing Bcl2L12-V5 polypeptides was assessed and compared to astrocytes transfected with a LacZ control vector. An anti-tubulin immunoblot was performed as a loading control. Suboptimal concentrations of digitonin were used to allow for selective permeabilization of the plasma membrane, but not of the intracellular membranes. […] This is consistent with the inability of Bcl2L12-V5 polypeptides to localize to mitochondria.

A further data set addresses T1, caspase-9 (Homo sapiens, UniProt P55211).
T1 construct: endogenous in cells; host or cells: 293T
T1 sequence (P55211 1-416): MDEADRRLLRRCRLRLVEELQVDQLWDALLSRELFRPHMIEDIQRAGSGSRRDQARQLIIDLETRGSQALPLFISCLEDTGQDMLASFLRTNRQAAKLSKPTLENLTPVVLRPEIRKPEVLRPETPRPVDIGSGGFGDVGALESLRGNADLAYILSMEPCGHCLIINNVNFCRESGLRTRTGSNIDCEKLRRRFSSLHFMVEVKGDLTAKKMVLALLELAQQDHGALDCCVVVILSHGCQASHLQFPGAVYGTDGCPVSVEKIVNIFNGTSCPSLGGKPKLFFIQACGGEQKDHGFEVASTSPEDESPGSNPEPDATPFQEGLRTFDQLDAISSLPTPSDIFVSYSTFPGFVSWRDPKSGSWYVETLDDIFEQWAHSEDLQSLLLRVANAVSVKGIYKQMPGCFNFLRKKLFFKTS
The data set can be described thus: Caspase-9 in vitro cleavage and LEHDase activity assay with 293T cells. Type of data set: cell-based. The following applies: for caspase-9 activity: V5 tagged constructs, vector only about 420 RFUs. The source says:
To determine if Bcl2L12 polypeptides could-regulate-the activity of caspase-9, a cell-free system was used in which exogenously added dATP and cytochrome c induced the activation of [^35S] labeled in vitro translated caspase-9. […] To confirm the inhibitory effect of Bcl2L12 polypeptides on caspase-9 maturation, 293T cells ectopically expressing Bcl2L12-V5 polypeptides where either subjected to an in vitro cleavage assay or to an activity assay using the caspase-9 specific fluorogenic peptide LEHD.
In addition, vectors encoding V5 tagged wild-type human Bcl2L12 polypeptide (WT; human amino acid sequence 1-334) and three V5 tagged truncation mutants of human Bcl2L12 (Bcl2L12-ΔBH2 polypeptide, human amino acid sequence 1-310; Bcl2L12-ΔBH2ΔP-r polypeptide, human amino acid sequence 1-267; and Bcl2L12-ΔBH2ΔP-rΔIHD polypeptide, human amino acid sequence 1-167) were made (FIG. 4A). These vectors expressed the appropriately sized polypeptides when translated in vitro or when expressed in 293T cells.

Another data set has as its system caspases 3 and 7. Briefly: Western blot of procaspase maturation in STS-treated Ink4a/Arf deficient astrocytes. The format is cell-based, mouse. The following applies: STS 1 μM, 0-16 hours. As for the experimental part: In another experiment, Ink4a/Arf deficient astrocytic cell cultures ectopically expressing the Bcl2L12-V5 polypeptide or containing pBabe were treated with STS (1 μM) for 0, 2, 4, 8, or 16 hours. Cell lysates were analyzed by Western blotting using anti-caspase-9 antibodies (1:1000; Cell Signaling), anti-caspase-7 antibodies (0.5 μg/ml; BD Pharmingen), anti-caspase-3 antibodies (0.25 μg/ml; BD Transduction Laboratories), anti-cleaved caspase-9 antibodies (1:1000; Cell Signaling), anti-cleaved capase-7 antibodies (1:1000; Calbiochem), and anti-cleaved caspase-3 antibodies (1:1000; Calbiochem).
(In general: Immunoblotting shows a protein as a band on a membrane.)

B1: Bcl2L12-V5: Bcl2L12 polypeptide having the V5 epitope tag, ectopically expressed from pBabe-Bcl2L12-V5 vector; human amino acid sequence 1-334 (protein)
chain: MGRPAGLFPPLCPFLGFRPEACWERHMQIERAPSVPPFLRWAGYRPGPVRRRGKVELIKFVRVQWRRPQVEWRRRRWGPGPGASMAGSEELGLREDTLRVLAAFLRRGEAAGSPVPTPPRSPAQEEPTDFLSRLRRCLPCSLGRGAAPSESPRPCSLPIRPCYGLEPGPATPDFYALVAQRLEQLVQEQLKSPPSPELQGPPSTEKEAILRRLVALLEEEAEVINQKLASDPALRSKLVRLSSDSFARLVELFCSRDDSSRPSRACPGPPPPSPEPLARLALAMELSRRVAGLGGTLAGLSVEHVHSFTPWIQAHGGWEGILAVSPVDLNLPLD
modifications: left off: small tags and cut ends
On to B1, for which the number of colonies entry in data set [1] is listed as “about 26 colonies”. In addition, in data set [2], the “resistance to anti-Fas, TRAIL, etoposide, and carboplatin mediated apoptosis” value is given as “complete resistance”; the DNA fragmentation result is recorded as “about 2%”. Besides, the “protection from γ-irradiation-induced apoptosis (DNA fragmentation)” value in data set [2] (10, 50, 100 Gy, 24 hours) is reported as “protects”. The “protection from STS-induced apoptosis (DNA fragmentation)” value in data set [2] (50, 100, or 1000 nM STS, 24 hours) is given as “protected astrocytes from STS-induced apoptosis”. The “protection from TNFα-mediated apoptosis (DNA fragmentation)” value in data set [2] (TNFα with 1 μg/mL cycloheximide, 24 hours) is “significant protection”. In addition, the “maximum percent DNA fragmentation” value in data set [2] (camptothecin up to 32 μM, 20 hours, pBabe greater than 60 percent) is listed as 35 to 45%. Moreover, the number of colonies result in data set [3] was “about 27 colonies”. The cytochrome c release entry with cytochrome c release is “did not block cytochrome c release”. Further, the LEHDase activity entry with caspase-9 (293T cells, control vector about 800 RFUs) was “about 260 RFUs”. In the data set with caspase-9, the caspase-9 activity entry was “about 145 RFUs”. The “processing of caspase-9 into p37 and p35” value with caspase-9 (in vitro cleavage assay, 293T cells, vs vector only) was “reduced processing of caspase-9”. The “maturation of effector caspases” value in the data set with caspases 3 and 7 is “significant reduction of the maturation of effector caspases 3 and 7”.

B2: Bcl2L12-V5-ΔBH2: V5 tagged mutant lacking amino acid residues 311-334 (BH2 domain) of human Bcl2L12; sequence 1-310 (protein)
chain: MGRPAGLFPPLCPFLGFRPEACWERHMQIERAPSVPPFLRWAGYRPGPVRRRGKVELIKFVRVQWRRPQVEWRRRRWGPGPGASMAGSEELGLREDTLRVLAAFLRRGEAAGSPVPTPPRSPAQEEPTDFLSRLRRCLPCSLGRGAAPSESPRPCSLPIRPCYGLEPGPATPDFYALVAQRLEQLVQEQLKSPPSPELQGPPSTEKEAILRRLVALLEEEAEVINQKLASDPALRSKLVRLSSDSFARLVELFCSRDDSSRPSRACPGPPPPSPEPLARLALAMELSRRVAGLGGTLAGLSVEHVHSFTP
modifications: left off: small tags and cut ends
As for B2, the DNA fragmentation entry in data set [2] is reported as “about 7%”. Further, the cytochrome c release entry in the data set with cytochrome c release is reported as “exhibited cytochrome c release”. In the data set with caspase-9, the caspase-9 activity entry is on record as “about 160 RFUs”.

The values are drawn from patent publication US7595158B2, “Bcl2L12 polypeptide activators and inhibitors” (Dana-Farber Cancer Institute, Inc., priority 2003, dated 2009).
